This is an account of results in paper PMC11686378.

The target of assay [1] is DNA primase PriSL (PriS-PriL heterodimer) from P. abyssi, in solution (Pyrococcus abyssi) (UniProt Q9V292).
Assay [2] shares this target. This is another data set of the same source.
Assay [3] addresses Replication Protein A (RPA) heterotrimer from Pyrococcus abyssi, wild type (Pyrococcus abyssi). The experiment in a line: BLI; RPA or RPA^ΔWH nucleoprotein filaments on a 3'-TEG-biotin 50-nt ssDNA held on streptavidin sensors; PriSL (1.56-100 nM) or PolD (15.62-1000 nM) in solution; steady-state analysis; 25 °C, buffer E with 0.2 mg/ml BSA. (In BLI a coated tip is dipped into the sample, and binding shifts an interference pattern.)

DNA primase PriSL (PriS-PriL heterodimer) from P. abyssi, in solution (Pyrococcus abyssi), sequence (Q9V292 whole entry, chain 1 of 2): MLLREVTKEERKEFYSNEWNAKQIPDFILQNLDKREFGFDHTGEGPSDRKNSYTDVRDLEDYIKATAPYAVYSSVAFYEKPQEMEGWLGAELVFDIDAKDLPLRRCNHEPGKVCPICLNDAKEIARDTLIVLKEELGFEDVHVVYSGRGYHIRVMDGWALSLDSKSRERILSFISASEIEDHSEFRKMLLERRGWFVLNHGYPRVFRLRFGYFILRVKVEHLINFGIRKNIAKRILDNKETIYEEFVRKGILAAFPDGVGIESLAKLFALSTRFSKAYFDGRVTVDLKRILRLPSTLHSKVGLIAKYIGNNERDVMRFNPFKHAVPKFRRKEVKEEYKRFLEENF
DNA primase PriSL (PriS-PriL heterodimer) from P. abyssi, in solution (Pyrococcus abyssi), sequence (Q9V291 whole entry, chain 2 of 2, further chain): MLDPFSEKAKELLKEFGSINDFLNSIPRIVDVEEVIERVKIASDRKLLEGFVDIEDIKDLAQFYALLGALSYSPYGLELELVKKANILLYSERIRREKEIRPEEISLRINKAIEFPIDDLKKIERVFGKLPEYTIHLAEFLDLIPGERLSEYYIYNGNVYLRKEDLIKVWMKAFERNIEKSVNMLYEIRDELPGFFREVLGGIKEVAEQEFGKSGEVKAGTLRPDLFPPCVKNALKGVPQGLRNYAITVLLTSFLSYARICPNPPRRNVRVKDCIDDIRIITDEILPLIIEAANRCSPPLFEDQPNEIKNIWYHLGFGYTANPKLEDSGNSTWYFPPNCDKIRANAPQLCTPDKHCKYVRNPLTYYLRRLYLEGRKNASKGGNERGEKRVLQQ

In turn, “Replication Protein A (RPA) heterotrimer from Pyrococcus abyssi, wild type (complex)” displayed a PriSL primer extension, long products (≥70 nt), with RPA from 0.05 to 0.8 µM in assay [1] of 5 fold.
As for “RPA^ala-linker, RPA with all 12 glutamic acid residues of the Rpa2 linker substituted with alanine (complex)”, the PriSL primer extension, reduction in long extension products against wild-type RPA, over the RPA concentrations tested in assay [2] came out at 45%.
Take “Replicative DNA polymerase PolD (DP1-DP2 heterodimer) from P. abyssi, in solution (complex)”: in assay [3], the Kd amounted to 136 nM.

As usually defined, the Kd is a measure of binding affinity in units of concentration. A lower Kd goes with higher affinity.
